Here are results for three compounds from patent publication US7167802B2, “Methods for identifying agents that interact with MAP kinase activated protein kinase 2” (Wyeth, priority 2002, dated 2007).

As usually defined, the Vmax is the rate approached at saturating substrate. As a reminder, the Km is the substrate concentration at which the rate is half of its maximum.

Where two headings read alike, the source gives them in different places.

The target of one data set is T1, MK2 (Homo sapiens, UniProt P49137).
T1 construct: made in house; host or cells: E. coli BL21 (DE3)
The experiment in a line: MK2 kinase kinetics, continuous pyruvate kinase/lactate dehydrogenase coupled assay at 340 nm. The following applies: for Km: 25° C. It counts as biochemical. Here is the method:
Activation of MK2 Constructs. The MK2 constructs 41–400 and 41–364 were activated by the phosphorylation of the constructs by p38 MAP kinase. The activation was done in 20 mM HEPES (pH 7.5), 10 mM MgCl2, 2 mM DTT, 0.50 mM ATP, 0.2 mg/ml MK2 and 0.125 μg activated p38. The reaction was incubated at 25° C. for 1–2 hour then placed on ice to be used for kinetic analysis.
Kinase Kinetics. The rate of MK2 kinase was characterized in 20 mM HEPES (pH 7.5), 10 mM MgCl2, 2 mM DTT and 100 mM NaCl. The kinetics was followed by linking the turnover of ATP is to the turnover of NADH to NAD. This was followed spectrophotometrically at 340 nm. The continuos assay contained 20 units pyruvate kinase, 30 units lactate dehydrogenase, 0.25 mM NADH, 2 mM PEP and 1.6 to 8.0 μg/mL MK2. For determining the apparent Km for ATP, the ATP concentration was varied from 0.005 to 0.25 mM while the peptide was held constant at 0.2 mM for activated MK-2 or 1.0 mM for the constitutively active form of MK-2 (41–364). For determining the apparent Km for LSP-1, the LSP-1 concentration was varied from 0.01 to 0.5 mM while ATP was held constant at 2 mM. The kinetic analysis was carried out in a 96-well plate at 25° C., on a Molecular Devices spectrophotometer.
Substrate Kinetics. Peptide LSP, based on the protein substrate of MK-2 lymphocyte/leukocyte specific protein, was used for the investigation of the kinetic mechanism for the enzyme MK-2. Data was fit to equation 1 for normal Michaelis-Menten kinetics. v=Vmax[S]/Km+[S] (1) where [S] is the substrate, Vmax is the maximum enzyme velocity, Km is the Michaelis constant.

For data set [1], the system named is LPS-induced cytokine synthesis in human monocytes. The following applies: cited from earlier work.
Data set [2] has as its system MAP kinase activated protein kinase 2 (MK2). The following applies: cited from earlier work.
[3] abbreviates: p38 + (construct activated by p38 phosphorylation).
Where [4] appears, read: p38 + (construct activated by p38 phosphorylation), ATP held at 2 mM, read-out: Apparent Km (LSP-1).
Where [5] appears, read: p38 activated / phosphorylated by p38.

T1 sequence (P49137 with tags, fused parts or gaps): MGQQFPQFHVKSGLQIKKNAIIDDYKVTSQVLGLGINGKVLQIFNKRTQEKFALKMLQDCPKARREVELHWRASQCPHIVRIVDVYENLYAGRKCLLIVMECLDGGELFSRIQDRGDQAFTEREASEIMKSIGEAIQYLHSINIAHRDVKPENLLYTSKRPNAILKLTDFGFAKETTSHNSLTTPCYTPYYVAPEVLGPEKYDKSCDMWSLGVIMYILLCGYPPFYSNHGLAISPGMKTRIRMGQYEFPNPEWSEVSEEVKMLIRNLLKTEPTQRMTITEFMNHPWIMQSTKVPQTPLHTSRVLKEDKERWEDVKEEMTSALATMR

Turning to “41-364: constitutively active MK2 polypeptide, residues 41–364, in which a portion of the C-terminal autoinhibitory domain was removed [Construct 41-364]”, the Vmax with MK2 (not phosphorylated) is 0.076 µmol/min/mg; in the data set with MK2 (setting [3]), 11 + 14 μmole/min/mg; with MK2 (setting [5]), 11 µmol/min/mg; in the data set with MK2 (p38 − (not phosphorylated)), 0.076 + 0.004 μmole/min/mg. Moreover, the Km with MK2 (setting [4]) came out at 20 µM; with MK2 (p38 − (not phosphorylated), ATP held at 2 mM, read-out: Apparent Km (LSP-1)) it was 584 µM; with MK2 (p38 − (not phosphorylated), LSP-1 peptide held at 1.0 mM, listed as MK2 41-364, read-out: Apparent Km (ATP)), 7 µM; in the data set with MK2 (p38 − (not phosphorylated), LSP-1 peptide held at 1.0 mM, read-out: Apparent Km (ATP)), 15 µM. Also, the “Km for LSP-1 peptide substrate, fold higher compared to p38 phosphorylated MK2 41-400” value in the data set with MK2 (unphosphorylated MK2 41-364) is 45 fold. The “Vmax, fold lower compared to p38 phosphorylated MK2 41-400” value in the data set with MK2 (unphosphorylated MK2 41-364) stood at 100 fold. Further, the “binding of the peptide substrate LSP-1, fold weaker than to p38 activated MK2 41-400” value in the data set with MK2 (unphosphorylated MK2 41-364 vs p38 activated MK2 41-400) is “more than 40 fold”.
For the compound “41-400: MK2 construct, amino acid residues 41–400, lacking the first 40 residues of the proline rich domain [Construct 41-400]”, the Vmax with MK2 (setting [3]) is 8.9 + 0.1 μmole/min/mg; with MK2 (setting [5]) it was 8.9 µmol/min/mg; with MK2 (p38 − (not phosphorylated)) it was “no activity”. For the same compound, the Km with MK2 (setting [4]) came out at 13 µM; with MK2 (p38 + (construct activated by p38 phosphorylation), LSP-1 peptide held at 0.2 mM, listed as MK2 41-400, read-out: Apparent Km (ATP)), 15 µM; with MK2 (p38 + (construct activated by p38 phosphorylation), LSP-1 peptide held at 0.2 mM, read-out: Apparent Km (ATP)) it was 7 µM.
On to `C[S+]([O-])c1ccc(-c2nc(-c3ccncc3)c(-c3ccc(F)cc3)[nH]2)cc1` (stereo not shown) [SB203580], for which the LPS-induced cytokine synthesis entry in data set [1] is “inhibits LPS-induced cytokine synthesis”. Moreover, in data set [2], the “activation of MK2” value is “prevents the activation”.
